Measurements: the supplement of paper PMC10567573

B1: SEC22B (parent)
chain: FPKKLAFAYLEDLHSEFDEQHGKK

Variants of: B1
Assay: protein stability index of a GFP-peptide fusion (GPS, HEK-293T) (PSI 1-6); higher = more stable
Conditions: c terminus: a fixed tail appended
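Further: lentivirally expressed fusions sorted by FACS into six bins by GFP to DsRed ratio, PSI derived from sequencing read proportions per bin multiplied by bin number.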

| Variant | protein stability index |
| --- | --- |
| FPKKLAFAGLEDLHSEFDEQHGKK [Y9G] | 3.27 |
| FPKKLAFAMLEDLHSEFDEQHGKK [Y9M] | 2.48 |
| FPKKLAFALLEDLHSEFDEQHGKK [Y9L] | 2.63 |
| FPKKLAFAALEDLHSEFDEQHGKK [Y9A] | 2.85 |
| FPKKLAFAKLEDLHSEFDEQHGKK [Y9K] | 3.08 |
| FPKKLAFAFLEDLHSEFDEQHGKK [Y9F] | 1.99 |
| FPKKLAFAVLEDLHSEFDEQHGKK [Y9V] | 2.2 |
| FPKKLAFACLEDLHSEFDEQHGKK [Y9C] | 2.18 |
| FPKKLAFANLEDLHSEFDEQHGKK [Y9N] | 3.67 |
| FPKKLAFARLEDLHSEFDEQHGKK [Y9R] | 3.09 |
| FPKKLAFADLEDLHSEFDEQHGKK [Y9D] | 3.15 |
| FPKKLAFAELEDLHSEFDEQHGKK [Y9E] | 3.04 |
| FPKKLAFAWLEDLHSEFDEQHGKK [Y9W] | 1.67 |
| FPKKLAFASLEDLHSEFDEQHGKK [Y9S] | 2.73 |
| FPKKLAFAQLEDLHSEFDEQHGKK [Y9Q] | 2.91 |
| FPKKLAFAILEDLHSEFDEQHGKK [Y9I] | 1.8 |
| FPKKLAFAPLEDLHSEFDEQHGKK [Y9P] | 2.9 |
| FPKKLAFAHLEDLHSEFDEQHGKK [Y9H] | 3.1 |
| FPKKLAFATLEDLHSEFDEQHGKK [Y9T] | 2.5 |
| FPKNLAFAYLEDLHSEFDEQHGKK [K4N] | 2.27 |
| FPKWLAFAYLEDLHSEFDEQHGKK [K4W] | 1.05 |
| FPKLLAFAYLEDLHSEFDEQHGKK [K4L] | 2.18 |
| FPKYLAFAYLEDLHSEFDEQHGKK [K4Y] | 1.95 |
| FPKILAFAYLEDLHSEFDEQHGKK [K4I] | 2.02 |

| Variant | protein stability index |
| --- | --- |
| FPKCLAFAYLEDLHSEFDEQHGKK [K4C] | 1.78 |
| FPKPLAFAYLEDLHSEFDEQHGKK [K4P] | 2.45 |
| FPKELAFAYLEDLHSEFDEQHGKK [K4E] | 4.95 |
| FPKSLAFAYLEDLHSEFDEQHGKK [K4S] | 1.55 |
| FPKFLAFAYLEDLHSEFDEQHGKK [K4F] | 1.97 |
| FPKALAFAYLEDLHSEFDEQHGKK [K4A] | 1.81 |
| FPKHLAFAYLEDLHSEFDEQHGKK [K4H] | 2.87 |
| FPKMLAFAYLEDLHSEFDEQHGKK [K4M] | 2.02 |
| FPKVLAFAYLEDLHSEFDEQHGKK [K4V] | 2.25 |
| FPKDLAFAYLEDLHSEFDEQHGKK [K4D] | 3.31 |
| FPKQLAFAYLEDLHSEFDEQHGKK [K4Q] | 2.52 |
| FPKTLAFAYLEDLHSEFDEQHGKK [K4T] | 2.47 |
| FPKGLAFAYLEDLHSEFDEQHGKK [K4G] | 2.72 |
| FPKRLAFAYLEDLHSEFDEQHGKK [K4R] | 1.61 |
| FPKKLAFIYLEDLHSEFDEQHGKK [A8I] | 2.4 |
| FPKKLAFTYLEDLHSEFDEQHGKK [A8T] | 2.64 |
| FPKKLAFPYLEDLHSEFDEQHGKK [A8P] | 2.84 |
| FPKKLAFRYLEDLHSEFDEQHGKK [A8R] | 2.34 |
| FPKKLAFDYLEDLHSEFDEQHGKK [A8D] | 3.39 |
| FPKKLAFQYLEDLHSEFDEQHGKK [A8Q] | 3.08 |
| FPKKLAFGYLEDLHSEFDEQHGKK [A8G] | 3.04 |
| FPKKLAFSYLEDLHSEFDEQHGKK [A8S] | 3.06 |
| FPKKLAFHYLEDLHSEFDEQHGKK [A8H] | 2.72 |
| FPKKLAFEYLEDLHSEFDEQHGKK [A8E] | 3.27 |

| Variant | protein stability index |
| --- | --- |
| FPKKLAFYYLEDLHSEFDEQHGKK [A8Y] | 1.79 |
| FPKKLAFVYLEDLHSEFDEQHGKK [A8V] | 2.31 |
| FPKKLAFKYLEDLHSEFDEQHGKK [A8K] | 2.91 |
| FPKKLAFMYLEDLHSEFDEQHGKK [A8M] | 2.68 |
| FPKKLAFLYLEDLHSEFDEQHGKK [A8L] | 1.88 |
| FPKKLAFFYLEDLHSEFDEQHGKK [A8F] | 2.26 |
| FPKKLAFCYLEDLHSEFDEQHGKK [A8C] | 2.09 |
| FPKKLAFNYLEDLHSEFDEQHGKK [A8N] | 2.83 |
| FPKKLRFAYLEDLHSEFDEQHGKK [A6R] | 2.28 |
| FPKKLMFAYLEDLHSEFDEQHGKK [A6M] | 2.3 |
| FPKKLPFAYLEDLHSEFDEQHGKK [A6P] | 3.06 |
| FPKKLLFAYLEDLHSEFDEQHGKK [A6L] | 1.83 |
| FPKKLEFAYLEDLHSEFDEQHGKK [A6E] | 3.96 |
| FPKKLGFAYLEDLHSEFDEQHGKK [A6G] | 2.45 |
| FPKKLWFAYLEDLHSEFDEQHGKK [A6W] | 2.74 |
| FPKKLVFAYLEDLHSEFDEQHGKK [A6V] | 2.45 |
| FPKKLCFAYLEDLHSEFDEQHGKK [A6C] | 2.29 |
| FPKKLFFAYLEDLHSEFDEQHGKK [A6F] | 2.4 |
| FPKKLNFAYLEDLHSEFDEQHGKK [A6N] | 2.56 |
| FPKKLSFAYLEDLHSEFDEQHGKK [A6S] | 2.69 |
| FPKKLQFAYLEDLHSEFDEQHGKK [A6Q] | 3.18 |
| FPKKLTFAYLEDLHSEFDEQHGKK [A6T] | 3.03 |
| FPKKLHFAYLEDLHSEFDEQHGKK [A6H] | 2.91 |
| FPKKLKFAYLEDLHSEFDEQHGKK [A6K] | 2.59 |

| Variant | protein stability index |
| --- | --- |
| FPKKLYFAYLEDLHSEFDEQHGKK [A6Y] | 1.66 |
| FPKKLDFAYLEDLHSEFDEQHGKK [A6D] | 3.13 |
| FPKKLIFAYLEDLHSEFDEQHGKK [A6I] | 2.35 |
| FPKKLAFAYLYDLHSEFDEQHGKK [E11Y] | 1.98 |
| FPKKLAFAYLWDLHSEFDEQHGKK [E11W] | 2.02 |
| FPKKLAFAYLQDLHSEFDEQHGKK [E11Q] | 1.94 |
| FPKKLAFAYLMDLHSEFDEQHGKK [E11M] | 2.17 |
| FPKKLAFAYLPDLHSEFDEQHGKK [E11P] | 1.8 |
| FPKKLAFAYLLDLHSEFDEQHGKK [E11L] | 2.35 |
| FPKKLAFAYLRDLHSEFDEQHGKK [E11R] | 2.24 |
| FPKKLAFAYLNDLHSEFDEQHGKK [E11N] | 2.61 |
| FPKKLAFAYLKDLHSEFDEQHGKK [E11K] | 2.63 |
| FPKKLAFAYLFDLHSEFDEQHGKK [E11F] | 1.97 |
| FPKKLAFAYLGDLHSEFDEQHGKK [E11G] | 2.08 |
| FPKKLAFAYLADLHSEFDEQHGKK [E11A] | 2.29 |
| FPKKLAFAYLTDLHSEFDEQHGKK [E11T] | 2.64 |
| FPKKLAFAYLHDLHSEFDEQHGKK [E11H] | 1.86 |
| FPKKLAFAYLCDLHSEFDEQHGKK [E11C] | 1.88 |
| FPKKLAFAYLVDLHSEFDEQHGKK [E11V] | 1.77 |
| FPKKLAFAYLIDLHSEFDEQHGKK [E11I] | 1.87 |
| FPKKLAFAYLSDLHSEFDEQHGKK [E11S] | 1.78 |
| FPKKLAFAYLDDLHSEFDEQHGKK [E11D] | 2.37 |
